Assay results taken from patent publication US12338483.

What was measured:
[1] = test system: MMP substrate of the biocomparator peptide cage (Example 4)
[2] = test system: MMP substrate (Example 3)
[3] = test system: GzmB/MMP AND-gate protease activity sensor
[4] = test system: Thrb substrate (individual protease substrate labeled with a fluorescent quencher and dye, nanoparticle-conjugated)
[5] = test system: GzmB substrate (individual protease substrate labeled with a fluorescent quencher and dye, nanoparticle-conjugated)
[6] = test system: T1, GzmB/Thrb AND-gate protease activity sensor
T1 sequence: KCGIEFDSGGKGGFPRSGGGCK

Chain of MMP1 (P03956 100-469): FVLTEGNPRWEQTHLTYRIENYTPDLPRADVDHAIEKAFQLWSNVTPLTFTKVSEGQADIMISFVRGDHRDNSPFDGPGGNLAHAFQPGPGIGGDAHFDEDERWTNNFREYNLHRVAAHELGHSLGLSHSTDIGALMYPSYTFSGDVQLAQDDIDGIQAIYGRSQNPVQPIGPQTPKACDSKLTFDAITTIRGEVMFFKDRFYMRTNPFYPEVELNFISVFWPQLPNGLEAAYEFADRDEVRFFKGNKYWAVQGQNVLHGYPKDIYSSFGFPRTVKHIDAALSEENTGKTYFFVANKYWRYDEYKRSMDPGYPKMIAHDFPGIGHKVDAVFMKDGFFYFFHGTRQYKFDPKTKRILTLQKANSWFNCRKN

Substance | change in fluorescence in a cleavage assay (kinetic trace) [2] | change in fluorescence in a cleavage assay (quenched substrate) [4] | change in fluorescence in a cleavage assay (quenched substrate) [5] | change in fluorescence in a cleavage assay (AND-gate sensor) [6] | also measured
MMP9 |  |  |  |  | fluorescent cleavage assay [1]: Results also confirmed MMP9 can cleave the MMP substrate by cleavage assay
MMP13 | The substrate was cleaved with high activity by MMP1, MMP8, and MMP13 |  |  |  | 
MMP8 | The substrate was cleaved with high activity by MMP1, MMP8, and MMP13 |  |  |  | fluorescent signal in a cleavage assay (AND-gate sensor with GzmB and a second protease) [3]: The sensor produced low signals with the viral proteases compared to MMP8
MMP1 | The substrate was cleaved with high activity by MMP1, MMP8, and MMP13 |  |  |  | 
thrombin (Thrb) |  | the Thrb substrate was cleaved only by Thrb | the GzmB substrate was cleaved effectively by GzmB alone | The reporter molecule emits a high fluorescent signal when both proteases are present together but not when either protease is present alone | 
granzyme B (GzmB) |  | the Thrb substrate was cleaved only by Thrb | the GzmB substrate was cleaved effectively by GzmB alone | The reporter molecule emits a high fluorescent signal when both proteases are present together but not when either protease is present alone | fluorescent signal in a cleavage assay (AND-gate sensor with each MMP, with and without GzmB) [3]: > 2 fold
